We go through one molecule from patent publication US20210047398A1, “ASPROSIN, A FAST-INDUCED GLUCOGENIC PROTEIN HORMONE” (Baylor College of Medicine, priority 2016, published 2021).

Series [1] in a line: Body composition, plasma parameters, histology, GTT and ITT in WT mice with increased circulating asprosin. It counts as in vivo. The protocol:
Animals—10-week old male WT C57/Bl6 mice were used for all in vivo studies. […] Mice were injected with 2.6 micro molar recombinant His tagged Asprosin or recombinant GFP daily for 10 days via subcutaneous injection. Mice were sacrificed and plasma and various organs were isolated 10 days after viral infusion or peptide injection. The Baylor College of Medicine Institutional Animal Care and Utilization Committee approved all experiments.
Body composition and Serum analyses—Body composition was analyzed with the ECHO-MRI system (Echo medical systems, Texas). Mouse serum was prepared from blood obtained through cardiac puncture and analyzed with the COBAS Integra 400 plus analyzer (Roche). Plasma leptin, FFA, adiponectin and triglyceride levels were measured by using a Mouse Leptin ELISA Kit (Millipore), NEFA C Test Kit (Wako), Mouse Adiponectin ELISA Kit (Millipore) and Serum/plasma triglyceride detection kit (Sigma), respectively.
Histology—Mouse inguinal adipose tissue samples were fixed in 10% formaldehyde for H&E staining. Frozen livers were used for oil-red-O staining to evaluate hepatic triglyceride content.
Blood glucose levels were measured using a glucometer (Life Scan).

Series [2] has as its system mouse primary hepatocytes. As to the kind of experiment: In vitro glucose production assay (media glucose accumulation). Particulars: 2 hours, 0-1100 nM recombinant asprosin. The protocol: (§1) Cell Culture. Primary mouse hepatocytes were isolated from 8- to 12-week-old WT mice using standard methodology. […] The cells were treated with 50 nM recombinant asprosin or GFP for 10 minutes for cAMP and PKA assays and for 2 hours for the in vitro glucose production assay. Cells were pretreated with various inhibitors for 1 hour prior to treatment with asprosin, GFP, Glucagon or Epinephrine. cAMP was measured from cell lysates using the cAMP direct immunoassay kit from Cell Biolabs. PKA activity was measured from cell lysates using the PKA kinase activity kit from Enzo Lifesciences, Inc. Media glucose content was measured using the Glucose Colorimetric Assay Kit from Biovision. Results were normalized to protein content.

Series [3] deals with mouse primary hepatocytes. As for the experimental part:
as §1

Another series concerns liver. As to the kind of experiment: Liver cAMP level and PKA activity after subcutaneous injection. It counts as in vivo, mice. To be noted: single 30 μg dose, 20 minutes. The text has this: […] Data are represented as the mean±SEM.
Cell Culture. […] Results were normalized to protein content.
(Cyclic AMP is a second messenger, typically raised through Gs and lowered through Gi signalling.)

Series [4] is described as follows: Plasma His-tag sandwich ELISA after subcutaneous injection. It counts as in vivo, mice. Particulars: 30 μg subcutaneous injection. As for the experimental part: FIGS. 22A-22E: Asprosin traffics to the liver in vivo and binds the hepatocyte surface with high affinity in a saturable and competitive manner. (FIG. 22A) SPECT scans were performed 15 minutes after intravenous injection with 150 μCi I125-asprosin, boiled I125-asprosin, or free I125 in live, anesthetized mice previously injected with bismuth as a hepatic contrast agent. 3 representative images are shown in axial and coronal planes. (FIG. 22B) Liver asprosin accumulation was measured as liver photon intensity from mice in (FIG. 22A). (FIG. 22C) Tissue radioactivity (normalized to tissue weight) was measured using a γ-counter after sacrificing mice from (FIG. 22A), 45 minutes following injection (n=4 mice). (FIG. 22D) Sandwich ELISA was used to measure plasma His tag (recombinant asprosin contains an N-terminal His tag) in WT mice before injection and 15, 30, 60 and 120 minutes after injection with 30 μg recombinant asprosin. The time taken for peak signal to fall to half-maximal level is indicated by the arrow. […] Specific binding (shown in red) was calculated as the difference between the two curves. Data are represented as the mean±SEM.
Sandwich ELISA and Western Blot. […] Increasing amounts of recombinant asprosin (which contains an N-terminal His tag) were used to generate a standard curve for both assays. EDTA-plasma was used for plasma sandwich ELISAs and serum-free DMEM concentrated using Vivaspin protein concentrator spin columns by GE Life Sciences Inc. was used for media sandwich ELISAs.
Background: ELISA stands for enzyme-linked immunosorbent assay.

[5] abbreviates: both experiments, 10 days, 4-hour fasted.

B1: recombinant asprosin: 146 amino acid E. coli expressed fusion protein: 6 amino acid N-terminal His tag and 140 amino acid wild type asprosin (FBN1 2732-2871) (protein)
chain: HHHHHHSTNETDASNIEDQSETEANVSLASWDVEKTAIFAFNISHVSNKVRILELLPALTTLTNHNRYLIESGNEDGFFKINQKEGISYLHFTKKKPVAGTYSLQISSTPLYKKKELNQLEDKYDKDYLSGELGDNLKMKIQVLLH
Regarding B1, the “blood glucose in insulin tolerance test” value in series [1] (60 minute mark, GFP mice had severe hypoglycemia) is listed as “maintained their blood glucose levels”. Moreover, the “glucose and insulin tolerance tests” value in series [1] (10 days, FIGS. 5G-5J) was “consistent with a diabetogenic effect”. Moreover, the “fat cell volume, inguinal white fat microscopy” value in series [1] (both experiments (FBN1 adenovirus; daily subcutaneous asprosin), 10 days) was “larger fat cell volume”. Besides, in series [1] (setting [5]), the “plasma leptin and adiponectin” value is recorded as “higher levels”; the “plasma triglycerides and free fatty acids” value is given as “lower levels”. Moreover, in series [1] (fasted mice, 10 days, FIGS. 11A-11D), the “plasma glucose and insulin” value is “hyperglycemia and hyperinsulinemia”. For the same molecule, in series [1] (ten days of daily subcutaneous injection, vs GFP injection), the “fat mass (MRI)” value is “significant increase”. Besides, the “lean mass (MRI)” value in series [1] (ten days of daily subcutaneous injection, same in GFP injected mice) is on record as “slight but significant decrease”. The media glucose concentration result in series [2] was “increase in glucose concentration in a dose-dependent manner”. Moreover, the “hepatocyte PKA activity, dose response” value in series [3] was “increased in a dose responsive manner”. Moreover, in the series with liver, the “liver cAMP and protein kinase A activity” value is “sufficient to increase liver cAMP and protein kinase A activity”. Moreover, the plasma half-life result in series [4] (His-tag ELISA) is “approximately 20 minutes”. In addition, in series [4] (mice), the “peak level in plasma” value is 50 nM and the “time of peak level after injection” value came to 20 min.
